Source: publication PMC4234207

Molecular target: T1, GST-FKH-FoxA2 (Rattus norvegicus (rat; cloned from genomic DNA)) (UniProt P32182)
T1 sequence (P32182 145-290, looked up): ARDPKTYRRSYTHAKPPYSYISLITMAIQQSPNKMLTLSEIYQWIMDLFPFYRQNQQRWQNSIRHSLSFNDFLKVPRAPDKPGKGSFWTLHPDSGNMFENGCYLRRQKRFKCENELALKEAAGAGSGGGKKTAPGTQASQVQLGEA
Assay: EMSA and self-competition
Details: reference probe; 25 mM HEPES pH 7.6, 150 mM KCl, 0.2 mM EDTA, 0.2 mM EGTA, 10% glycerol, 1 mM DTT, 3 ug protein, 1 ng 32P-TTR probe, 2/5/20 ng competitor, on ice 15 min; 4% …

Sequence: CAGTCGAGTTGACTAAGTCAATAATCAGAATCAGTCG (double strand) [TTR]
- binding signal (EMSA score (TTR=1)): 1
